This note sets out measurements from paper PMC6946549 (Biochemistry, 2019).

The labels stand for the following.
B2: Ltp2 (17-hydroxy-3-oxo-4-pregnene-20-carboxyl-CoA retro-aldolase; chain gamma of the ChsH1-ChsH2-Ltp2 complex) (enzyme)
chain: MLSGQAAIVGIGATDFSKNSGRSELRLAAEAVLDALADAGLSPTDVDGLTTFTMDTNTEIAVARAAGIGELTFFSKIHYGGGAACATVQHAAMAVATGVADVVVAYRAFNERSGMRFGQVQTRLTENADSTGVDNSFSYPHGLSTPAAQVAMIARRYMHLSGATSRDFGAVSVADRKHAANNPKAYFYGKPITIEDHQNSRWIAEPLRLLDCCQETDGAVAIVVTSAARARDLKQRPVVIEAAAQGCSPDQYTMVSYYRPELDGLPEMGLVGRQLWAQSGLTPADVQTAVLYDHFTPFTLIQLEELGFCGKGEAKDFIADGAIEVGGRLPINTHGGQLGEAYIHGMNGIAEGVRQLRGTSVNPVAGVEHVLVTAGTGVPTSGLILG

Data set [1] deals with B2. Put plainly: SAXS.
The data set “negative-stain EM” deals with the molecule itself. As to the kind of experiment: negative-stain EM.

B1: ChsH2 (chain beta of the ChsH1-ChsH2-Ltp2 complex) (enzyme)
chain: MTGVSDIQEAVAQIKAAGPSKPRLARDPVNQPMINNWVEAIGDRNPIYVDDAAARAAGHPGIVAPPAMIQVWTMMGLGGVRPKDDPLGPIIKLFDDAGYIGVVATNCEQTYHRYLLPGEQVSISAELGDVVGPKQTALGEGWFINQHIVWQVGDEDVAEMNWRILKFKPAGSPSSVPDDLDPDAMMRPSSSRDTAFFWDGVKAHELRIQRLADGSLRHPPVPAVWQDKSVPINYVVSSGRGTVFSFVVHHAPKVPGRTVPFVIALVELEEGVRMLGELRGADPARVAIGMPVRATYIDFPDWSLYAWEPDE
B1: the binding result in data set [1] is reported as “binds”.

With B2, the binding result in “negative-stain EM” is listed as “binds”.
